Results on two substances are retold here after article PMC3427744.

For assay [1], the target named is non-fucosylated G2 glycoform of rituximab (10). The experiment in a line: SPR. Background: In SPR one partner is held on a chip, and binding of the other changes the refractive index at the surface.
The next assay concerns the target commercial rituximab. The experiment in a line: SPR.

Regarding “FcγRIIIa-F158 (from UniProt P08637 17-254) (receptor)”, the Kd (usually the concentration at which binding is half-saturated) in assay [1] amounted to 123 nM; in the assay with commercial rituximab it was 1040 nM.
In the assay with commercial rituximab, “FcγRIIb (from UniProt P31994 43-310) (receptor)” returned a Kd of 2000 nM.
